*1 amine or outer side, *2 acyl side, *3 side chain or, on linkers, in order; H or OH if unused. Bridges are numbered along the chain shown (N, C = ends). [ ]: non-standard residue; d: D form. The star is where a group is joined. C20 diacid = O=C(O)CCCCCCCCCCCCCCCCCCC(=O)*; γGlu = O=C(O)[C@H](CCC(=O)[*:2])N[*:1]; Hyp = O=C(O)[C@@H]1C[C@@H](O)CN1; NMeI = CC[C@H](C)[C@H](NC)C(=O)O; Sar = CNCC(=O)O

The target of the assay is T1, human amylin receptor 3 (hAMYR3), hCTR2 co-expressed with human receptor activity modifying protein 3 (hRAMP3) (human, UniProt P30988 25-474; O60896 24-148).
T1 sequence (looked up) 1: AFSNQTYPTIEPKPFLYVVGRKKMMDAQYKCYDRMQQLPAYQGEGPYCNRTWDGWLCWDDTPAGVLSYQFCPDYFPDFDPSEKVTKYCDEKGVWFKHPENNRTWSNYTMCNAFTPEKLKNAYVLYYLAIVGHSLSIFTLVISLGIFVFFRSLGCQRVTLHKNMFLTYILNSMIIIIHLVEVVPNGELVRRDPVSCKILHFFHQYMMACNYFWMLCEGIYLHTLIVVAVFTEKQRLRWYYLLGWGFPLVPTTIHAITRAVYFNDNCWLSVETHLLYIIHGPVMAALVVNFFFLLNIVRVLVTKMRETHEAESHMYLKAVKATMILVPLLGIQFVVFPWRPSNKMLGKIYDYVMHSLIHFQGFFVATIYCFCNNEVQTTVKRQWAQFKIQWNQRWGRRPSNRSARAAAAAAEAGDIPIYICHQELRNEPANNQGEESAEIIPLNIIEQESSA
T1 sequence (looked up) 2: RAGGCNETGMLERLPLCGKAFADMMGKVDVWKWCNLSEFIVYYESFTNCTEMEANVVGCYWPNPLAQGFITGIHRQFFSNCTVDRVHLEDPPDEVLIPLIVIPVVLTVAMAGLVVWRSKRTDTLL
In words: cell-based or functional assay.

B1: [19CD]-isoGlu-R-C( )-GTAT-C( )-ATERLAHFLHRSSF-Gly(Me)-A-Ile(Me)-LSSTEVGSETP-NH2 (Compd. 26) (peptide)
peptide: {C20 diacid}-[γGlu]RCGTATCATERLAHFLHRSSF[Sar]A[NMeI]LSSTEVGSETP-NH2
modifications: disulfide 3-8
SMILES: CC[C@H](C)[C@@H](C(=O)N[C@@H](CC(C)C)C(=O)N[C@@H](CO)C(=O)N[C@@H](CO)C(=O)N[C@H](C(=O)N[C@@H](CCC(=O)O)C(=O)N[C@H](C(=O)NCC(=O)N[C@@H](CO)C(=O)N[C@@H](CCC(=O)O)C(=O)N[C@H](C(=O)N1CCC[C@H]1C(N)=O)[C@@H](C)O)C(C)C)[C@@H](C)O)N(C)C(=O)[C@H](C)NC(=O)CN(C)C(=O)[C@H](Cc1ccccc1)NC(=O)[C@H](CO)NC(=O)[C@H](CO)NC(=O)[C@H](CCCNC(=N)N)NC(=O)[C@H](Cc1c[nH]cn1)NC(=O)[C@H](CC(C)C)NC(=O)[C@H](Cc1ccccc1)NC(=O)[C@H](Cc1c[nH]cn1)NC(=O)[C@H](C)NC(=O)[C@H](CC(C)C)NC(=O)[C@H](CCCNC(=N)N)NC(=O)[C@H](CCC(=O)O)NC(=O)[C@@H](NC(=O)[C@H](C)NC(=O)[C@@H]1CSSC[C@H](NC(=O)[C@H](CCCNC(=N)N)NC(=O)CC[C@H](NC(=O)CCCCCCCCCCCCCCCCCCC(=O)O)C(=O)O)C(=O)NCC(=O)N[C@@H]([C@@H](C)O)C(=O)N[C@@H](C)C(=O)N[C@@H]([C@@H](C)O)C(=O)N1)[C@@H](C)O
As to B1, the “hAMYR3 EC50 (nM); cAMP induction” value is 0.12 nM.

B2: [19CD]-isoGlu-R-C( )-GTAT-C( )-ATERLAHFLNRSSF-Gly(Me)-A-Ile(Me)-LSSTEVGSST-Hyp-NH2 (Compd. 29) (peptide)
peptide: {C20 diacid}-[γGlu]RCGTATCATERLAHFLNRSSF[Sar]A[NMeI]LSSTEVGSST[Hyp]-NH2
modifications: disulfide 3-8
SMILES: CC[C@H](C)[C@@H](C(=O)N[C@@H](CC(C)C)C(=O)N[C@@H](CO)C(=O)N[C@@H](CO)C(=O)N[C@H](C(=O)N[C@@H](CCC(=O)O)C(=O)N[C@H](C(=O)NCC(=O)N[C@@H](CO)C(=O)N[C@@H](CO)C(=O)N[C@H](C(=O)N1C[C@H](O)C[C@H]1C(N)=O)[C@@H](C)O)C(C)C)[C@@H](C)O)N(C)C(=O)[C@H](C)NC(=O)CN(C)C(=O)[C@H](Cc1ccccc1)NC(=O)[C@H](CO)NC(=O)[C@H](CO)NC(=O)[C@H](CCCNC(=N)N)NC(=O)[C@H](CC(N)=O)NC(=O)[C@H](CC(C)C)NC(=O)[C@H](Cc1ccccc1)NC(=O)[C@H](Cc1c[nH]cn1)NC(=O)[C@H](C)NC(=O)[C@H](CC(C)C)NC(=O)[C@H](CCCNC(=N)N)NC(=O)[C@H](CCC(=O)O)NC(=O)[C@@H](NC(=O)[C@H](C)NC(=O)[C@@H]1CSSC[C@H](NC(=O)[C@H](CCCNC(=N)N)NC(=O)CC[C@H](NC(=O)CCCCCCCCCCCCCCCCCCC(=O)O)C(=O)O)C(=O)NCC(=O)N[C@@H]([C@@H](C)O)C(=O)N[C@@H](C)C(=O)N[C@@H]([C@@H](C)O)C(=O)N1)[C@@H](C)O
As to B2, the “hAMYR3 EC50 (nM); cAMP induction” value was determined as 0.12 nM.

B3: [19CD]-isoGlu-R-C( )-PTAT-C( )-ATDRLAHFLHRSSF-Gly(Me)-A-Ile(Me)-LSSTDVGSNTP-NH2 (Compd. 25) (peptide)
peptide: {C20 diacid}-[γGlu]RCPTATCATDRLAHFLHRSSF[Sar]A[NMeI]LSSTDVGSNTP-NH2
modifications: disulfide 3-8
SMILES: CC[C@H](C)[C@@H](C(=O)N[C@@H](CC(C)C)C(=O)N[C@@H](CO)C(=O)N[C@@H](CO)C(=O)N[C@H](C(=O)N[C@@H](CC(=O)O)C(=O)N[C@H](C(=O)NCC(=O)N[C@@H](CO)C(=O)N[C@@H](CC(N)=O)C(=O)N[C@H](C(=O)N1CCC[C@H]1C(N)=O)[C@@H](C)O)C(C)C)[C@@H](C)O)N(C)C(=O)[C@H](C)NC(=O)CN(C)C(=O)[C@H](Cc1ccccc1)NC(=O)[C@H](CO)NC(=O)[C@H](CO)NC(=O)[C@H](CCCNC(=N)N)NC(=O)[C@H](Cc1c[nH]cn1)NC(=O)[C@H](CC(C)C)NC(=O)[C@H](Cc1ccccc1)NC(=O)[C@H](Cc1c[nH]cn1)NC(=O)[C@H](C)NC(=O)[C@H](CC(C)C)NC(=O)[C@H](CCCNC(=N)N)NC(=O)[C@H](CC(=O)O)NC(=O)[C@@H](NC(=O)[C@H](C)NC(=O)[C@@H]1CSSC[C@H](NC(=O)[C@H](CCCNC(=N)N)NC(=O)CC[C@H](NC(=O)CCCCCCCCCCCCCCCCCCC(=O)O)C(=O)O)C(=O)N2CCC[C@H]2C(=O)N[C@@H]([C@@H](C)O)C(=O)N[C@@H](C)C(=O)N[C@@H]([C@@H](C)O)C(=O)N1)[C@@H](C)O
For the molecule B3, the “hAMYR3 EC50 (nM); cAMP induction” value came out at 0.094 nM.

B4: [19CD]-isoGlu-R-C( )-NTAT-C( )-ATQRLANFLHRSSF-Gly(Me)-A-Ile(Me)-LSSTEVGSETP-NH2 (Compd. 3) (peptide)
peptide: {C20 diacid}-[γGlu]RCNTATCATQRLANFLHRSSF[Sar]A[NMeI]LSSTEVGSETP-NH2
modifications: disulfide 3-8
As for B4, the “hAMYR3 EC50 (nM); cAMP induction” value stood at 0.2 nM.

B5: [19CD]-isoGlu-R-C( )-GTAT-C( )-ATERLAHFLQRSSF-Gly(Me)-A-Ile(Me)-LSSTEVGSST-Hyp-NH2 (Compd. 28) (peptide)
peptide: {C20 diacid}-[γGlu]RCGTATCATERLAHFLQRSSF[Sar]A[NMeI]LSSTEVGSST[Hyp]-NH2
modifications: disulfide 3-8
SMILES: CC[C@H](C)[C@@H](C(=O)N[C@@H](CC(C)C)C(=O)N[C@@H](CO)C(=O)N[C@@H](CO)C(=O)N[C@H](C(=O)N[C@@H](CCC(=O)O)C(=O)N[C@H](C(=O)NCC(=O)N[C@@H](CO)C(=O)N[C@@H](CO)C(=O)N[C@H](C(=O)N1C[C@H](O)C[C@H]1C(N)=O)[C@@H](C)O)C(C)C)[C@@H](C)O)N(C)C(=O)[C@H](C)NC(=O)CN(C)C(=O)[C@H](Cc1ccccc1)NC(=O)[C@H](CO)NC(=O)[C@H](CO)NC(=O)[C@H](CCCNC(=N)N)NC(=O)[C@H](CCC(N)=O)NC(=O)[C@H](CC(C)C)NC(=O)[C@H](Cc1ccccc1)NC(=O)[C@H](Cc1c[nH]cn1)NC(=O)[C@H](C)NC(=O)[C@H](CC(C)C)NC(=O)[C@H](CCCNC(=N)N)NC(=O)[C@H](CCC(=O)O)NC(=O)[C@@H](NC(=O)[C@H](C)NC(=O)[C@@H]1CSSC[C@H](NC(=O)[C@H](CCCNC(=N)N)NC(=O)CC[C@H](NC(=O)CCCCCCCCCCCCCCCCCCC(=O)O)C(=O)O)C(=O)NCC(=O)N[C@@H]([C@@H](C)O)C(=O)N[C@@H](C)C(=O)N[C@@H]([C@@H](C)O)C(=O)N1)[C@@H](C)O
Consider B5, for which the “hAMYR3 EC50 (nM); cAMP induction” value was determined as 0.13 nM.

B6: [19CD]-isoGlu-R-C( )-NTAT-C( )-ATQRLAHFLVRSSF-Gly(Me)-A-Ile(Me)-LSSTEVGSETP-NH2 (Compd. 24) (peptide)
peptide: {C20 diacid}-[γGlu]RCNTATCATQRLAHFLVRSSF[Sar]A[NMeI]LSSTEVGSETP-NH2
modifications: disulfide 3-8
SMILES: CC[C@H](C)[C@@H](C(=O)N[C@@H](CC(C)C)C(=O)N[C@@H](CO)C(=O)N[C@@H](CO)C(=O)N[C@H](C(=O)N[C@@H](CCC(=O)O)C(=O)N[C@H](C(=O)NCC(=O)N[C@@H](CO)C(=O)N[C@@H](CCC(=O)O)C(=O)N[C@H](C(=O)N1CCC[C@H]1C(N)=O)[C@@H](C)O)C(C)C)[C@@H](C)O)N(C)C(=O)[C@H](C)NC(=O)CN(C)C(=O)[C@H](Cc1ccccc1)NC(=O)[C@H](CO)NC(=O)[C@H](CO)NC(=O)[C@H](CCCNC(=N)N)NC(=O)[C@@H](NC(=O)[C@H](CC(C)C)NC(=O)[C@H](Cc1ccccc1)NC(=O)[C@H](Cc1c[nH]cn1)NC(=O)[C@H](C)NC(=O)[C@H](CC(C)C)NC(=O)[C@H](CCCNC(=N)N)NC(=O)[C@H](CCC(N)=O)NC(=O)[C@@H](NC(=O)[C@H](C)NC(=O)[C@@H]1CSSC[C@H](NC(=O)[C@H](CCCNC(=N)N)NC(=O)CC[C@H](NC(=O)CCCCCCCCCCCCCCCCCCC(=O)O)C(=O)O)C(=O)N[C@@H](CC(N)=O)C(=O)N[C@@H]([C@@H](C)O)C(=O)N[C@@H](C)C(=O)N[C@@H]([C@@H](C)O)C(=O)N1)[C@@H](C)O)C(C)C
As to B6, the “hAMYR3 EC50 (nM); cAMP induction” value stood at 0.19 nM.

B7: [19CD]-isoGlu-R-C( )-PTAT-C( )-ATDRLAHFLHRSSF-Gly(Me)-A-Ile(Me)-LSSTDVGSDTP-NH2 (Compd. 27) (peptide)
peptide: {C20 diacid}-[γGlu]RCPTATCATDRLAHFLHRSSF[Sar]A[NMeI]LSSTDVGSDTP-NH2
modifications: disulfide 3-8
SMILES: CC[C@H](C)[C@@H](C(=O)N[C@@H](CC(C)C)C(=O)N[C@@H](CO)C(=O)N[C@@H](CO)C(=O)N[C@H](C(=O)N[C@@H](CC(=O)O)C(=O)N[C@H](C(=O)NCC(=O)N[C@@H](CO)C(=O)N[C@@H](CC(=O)O)C(=O)N[C@H](C(=O)N1CCC[C@H]1C(N)=O)[C@@H](C)O)C(C)C)[C@@H](C)O)N(C)C(=O)[C@H](C)NC(=O)CN(C)C(=O)[C@H](Cc1ccccc1)NC(=O)[C@H](CO)NC(=O)[C@H](CO)NC(=O)[C@H](CCCNC(=N)N)NC(=O)[C@H](Cc1c[nH]cn1)NC(=O)[C@H](CC(C)C)NC(=O)[C@H](Cc1ccccc1)NC(=O)[C@H](Cc1c[nH]cn1)NC(=O)[C@H](C)NC(=O)[C@H](CC(C)C)NC(=O)[C@H](CCCNC(=N)N)NC(=O)[C@H](CC(=O)O)NC(=O)[C@@H](NC(=O)[C@H](C)NC(=O)[C@@H]1CSSC[C@H](NC(=O)[C@H](CCCNC(=N)N)NC(=O)CC[C@H](NC(=O)CCCCCCCCCCCCCCCCCCC(=O)O)C(=O)O)C(=O)N2CCC[C@H]2C(=O)N[C@@H]([C@@H](C)O)C(=O)N[C@@H](C)C(=O)N[C@@H]([C@@H](C)O)C(=O)N1)[C@@H](C)O
For B7, the “hAMYR3 EC50 (nM); cAMP induction” value was found to be 0.16 nM.
